Assay results: the supplement of paper PMC10724198
± gives the standard deviation of the averaged measurements.

The sequences below were run on Saccharomyces cerevisiae (assay: protein stability index of tFT-peptide fusion (C-terminal peptide) (PSI (0-1 scale)); higher = more stable (slower turnover)). Settings: genetic background: wild type; temperature: 30 C.
Protocol: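 MPS profiling in S. cerevisiae of the yeast C-terminome library: the last 12 aa of each annotated ORF are fused to the C-terminus of a sfGFP-mCherry timer, after a GGGS linker. Cells are FACS-sorted into 8 mCherry/sfGFP bins and deep-sequenced. PSI runs from 0 (unstable) to 1 (stable); wild type and das1Δ backgrounds, two technical replicates each.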

| Sequence | protein stability index |
| --- | --- |
| DCGWVSDAYKNH [LCL2 C-terminal 12 aa] | 0.724 ± 0.043 |
| DDDEEDEIVEVA [HGH1 C-terminal 12 aa] | 0.6572 ± 0.0019 |
| DDDGDYFEHDEL [KAR2 C-terminal 12 aa] | 0.6679 ± 0.00099 |
| DDGDSDSWDTNW [CEX1 C-terminal 12 aa] | 0.702 ± 0.014 |
| DDQDAISNQEKK [EIS1 C-terminal 12 aa] | 0.701 ± 0.038 |
| DDRPIYKRFFSS [HXT9 C-terminal 12 aa] | 0.654 ± 0.023 |
| DEDDGMIIGSLW [AEP2 C-terminal 12 aa] | 0.708 ± 0.013 |
| DEELHPLSDEGM [DPP1 C-terminal 12 aa] | 0.726 ± 0.061 |
| DEEREDDNYVPQ [CBC2 C-terminal 12 aa] | 0.671 ± 0.022 |
| DEKVKKMVENLQ [TRS23 C-terminal 12 aa] | 0.738 ± 0.077 |
| DFLTLVQTNSDT [YPL250W-A C-terminal 12 aa] | 0.722 ± 0.038 |
| DFNSKSKKKNDK [MIN6 C-terminal 12 aa] | 0.6535 ± 0.0044 |
| DGPGLNNFGITL [BMT2 C-terminal 12 aa] | 0.699 ± 0.035 |
| DIEINDDLNGVL [VPS41 C-terminal 12 aa] | 0.708 ± 0.053 |
| DIFEDSSDEEQS [SPL2 C-terminal 12 aa] | 0.727 ± 0.084 |
| DKHEQPQIESPK [CFD1 C-terminal 12 aa] | 0.684 ± 0.021 |
| DKKLEEQLRDLV [MTC3 C-terminal 12 aa] | 0.689 ± 0.052 |
| DKSTFGLSPVKI [GRS2 C-terminal 12 aa] | 0.666 ± 0.0084 |
| DLDFLGSDIEFE [HFM1 C-terminal 12 aa] | 0.7077 ± 0.002 |
| DLESLTAKLIQG [HCA4 C-terminal 12 aa] | 0.67282 ± 0.00041 |
| DLIDDKTNRGRR [PRP2 C-terminal 12 aa] | 0.697 ± 0.023 |

| Sequence | protein stability index |
| --- | --- |
| DLIKEHSKDIQV [HCH1 C-terminal 12 aa] | 0.691 ± 0.012 |
| DMEMEAIAAERD [HMF1 C-terminal 12 aa] | 0.706 ± 0.031 |
| DNLKYSLDCDFS [BGL2 C-terminal 12 aa] | 0.666 ± 0.0075 |
| DNRPIYKRFFSS [HXT11 C-terminal 12 aa] | 0.511 ± 0.018 |
| DNTKESKDVKMN [RTT102 C-terminal 12 aa] | 0.673 ± 0.081 |
| DNTTKHSSNVHT [YER079W C-terminal 12 aa] | 0.667 ± 0.0093 |
| DNVEQRVLKQYM [EMC3 C-terminal 12 aa] | 0.651 ± 0.0092 |
| DPLYYVYCLHMP [NAT4 C-terminal 12 aa] | 0.643 ± 0.0089 |
| DQPFYKSLFSRK [HXT1 C-terminal 12 aa] | 0.685 ± 0.053 |
| DRDGCVNAVLLV [NSA2 C-terminal 12 aa] | 0.6768 ± 0.0054 |
| DRWLNRKALNKG [BUD21 C-terminal 12 aa] | 0.676 ± 0.021 |
| DSATLVNVHIKR [SPR3 C-terminal 12 aa] | 0.7269 ± 0.0019 |
| DSNTGGIIASIF [YKL104W-A C-terminal 12 aa] | 0.696 ± 0.027 |
| DSSKYSLGNNSS [SUR1 C-terminal 12 aa] | 0.686 ± 0.016 |
| DTFIPSTLQSVT [YNL089C C-terminal 12 aa] | 0.678 ± 0.015 |
| DTVKILTELFNL [SEC53 C-terminal 12 aa] | 0.732 ± 0.062 |
| DTVPPEKLMKFV [RAX2 C-terminal 12 aa] | 0.66 ± 0.027 |
| DVEELREQLENC [AIM7 C-terminal 12 aa] | 0.723 ± 0.018 |
| DVQGICLRNDKK [SLX4 C-terminal 12 aa] | 0.651 ± 0.008 |
| DYDEEDPYEDPF [IKI1 C-terminal 12 aa] | 0.6905 ± 0.0059 |
| EADMKTKLDISD [NBP2 C-terminal 12 aa] | 0.696 ± 0.023 |

| Sequence | protein stability index |
| --- | --- |
| EANFWTAALEYE [THI21 C-terminal 12 aa] | 0.6857 ± 0.003 |
| EANLKVLNGLEI [YPR148C C-terminal 12 aa] | 0.667 ± 0.011 |
| EAQLSCNYEPLP [COS10 C-terminal 12 aa] | 0.673 ± 0.0098 |
| ECAPVPPAVRSY [SDH9 C-terminal 12 aa] | 0.6797 ± 0.0018 |
| ECYLITILWLHK [TDA2 C-terminal 12 aa] | 0.289 ± 0.0072 |
| EDKEIVDGKVLK [TEF4 C-terminal 12 aa] | 0.674 ± 0.023 |
| EDSHYGNAKKVT [FPS1 C-terminal 12 aa] | 0.688 ± 0.011 |
| EDVQLALNKHMN [YAP1 C-terminal 12 aa] | 0.69 ± 0.0072 |
| EEESTTSENLHF [RSM25 C-terminal 12 aa] | 0.69 ± 0.025 |
| EELLNQPPEEQI [GPX1 C-terminal 12 aa] | 0.766 ± 0.093 |
| EELRPDTLESEL [REC107 C-terminal 12 aa] | 0.6742 ± 0.0014 |
| EEMEEFKKLVMG [MIC19 C-terminal 12 aa] | 0.6922 ± 0.00094 |
| EEQRNHLKDLYG [SLU7 C-terminal 12 aa] | 0.702 ± 0.011 |
| EERKDALANNIK [CCS1 C-terminal 12 aa] | 0.688 ± 0.07 |
| EEVETVSEHVKV [DPA10 C-terminal 12 aa] | 0.691 ± 0.038 |
| EFLTNSILTRRK [COQ1 C-terminal 12 aa] | 0.651 ± 0.065 |
| EFVVQSLRSRNQ [YFR018C C-terminal 12 aa] | 0.703 ± 0.035 |
| EGEHEQVLENFQ [GUT1 C-terminal 12 aa] | 0.676 ± 0.032 |
| EGFIAKVMCCLD [RFC5 C-terminal 12 aa] | 0.599 ± 0.021 |
| EGWNSDNVYKLS [CYC2 C-terminal 12 aa] | 0.598 ± 0.0034 |
| EHDKSPLSRKRQ [SFI1 C-terminal 12 aa] | 0.703 ± 0.035 |

| Sequence | protein stability index |
| --- | --- |
| EHRMLKLILNSG [NTO1 C-terminal 12 aa] | 0.644 ± 0.013 |
| EIKEMLVTLINK [SRL2 C-terminal 12 aa] | 0.652 ± 0.028 |
| EIVGRYVVETSK [ADH5 C-terminal 12 aa] | 0.6821 ± 0.0047 |
| EKCSYYFLSRAH [YNL017C C-terminal 12 aa] | 0.66 ± 0.023 |
| EKGIFAGDINSD [COX12 C-terminal 12 aa] | 0.726 ± 0.029 |
| EKKDTEGDVDMD [SSE1 C-terminal 12 aa] | 0.666 ± 0.011 |
| EKKRVLNAVCGL [YLR412C-A C-terminal 12 aa] | 0.658 ± 0.021 |
| EKPPKEEPESDI [TIM54 C-terminal 12 aa] | 0.666 ± 0.0042 |
| EKVRCIKKYQSW [APD1 C-terminal 12 aa] | 0.727 ± 0.034 |
| ELPNGKVIYSRK [ERJ5 C-terminal 12 aa] | 0.745 ± 0.025 |
| ELTSSDDCKDFI [YDR124W C-terminal 12 aa] | 0.652 ± 0.034 |
| EMLGDKVNKKGI [SOK1 C-terminal 12 aa] | 0.67 ± 0.012 |
| EMNNIIAASRRH [RPL36A C-terminal 12 aa] | 0.713 ± 0.048 |
| ENAEKQRTLKKN [RIA1 C-terminal 12 aa] | 0.71 ± 0.045 |
| ENAHMQSAESCN [YLR236C C-terminal 12 aa] | 0.717 ± 0.074 |
| ENASQLPHPSQK [ZIM17 C-terminal 12 aa] | 0.691 ± 0.021 |
| ENDPWKVVRLAP [PDX3 C-terminal 12 aa] | 0.715 ± 0.011 |
| ENLVKQEAINGS [YAF9 C-terminal 12 aa] | 0.6834 ± 0.0042 |
| ENVDSPRKSNQL [SLM2 C-terminal 12 aa] | 0.678 ± 0.014 |
| EPFGPKMSTVQV [YHB1 C-terminal 12 aa] | 0.663 ± 0.0085 |
